According to IntAct's records for PubMed 23949442:

B1: SNARE-associated protein Snapin (Homo sapiens), O95295 (parent)
chain: MAGAGSAAVSGAGTPVAGPTGRDLFAEGLLEFLRPAVQQLDSHVHAVRESQVELREQIDNLATELCRINEDQKVALDLDPYVKKLLNARRRVVLVNNILQNAQERLRRLNHSVAKETARRRAMLDSGIYPPGSPGK

Variants of: B1
Conditions: with snp25_rat Snap25, P60881
snp25_rat Snap25, P60881, sequence (P60881 whole entry, looked up): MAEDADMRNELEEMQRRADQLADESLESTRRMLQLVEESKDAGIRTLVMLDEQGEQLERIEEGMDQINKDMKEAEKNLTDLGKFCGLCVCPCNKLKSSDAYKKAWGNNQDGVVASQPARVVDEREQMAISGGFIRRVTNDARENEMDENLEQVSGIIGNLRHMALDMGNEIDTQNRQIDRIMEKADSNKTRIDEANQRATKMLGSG

| effect of a mutation on the interaction | Variant |
| --- | --- |
| decreasing interaction | MAGAGSAAVSGAGTPVAGPTGRDLFAEGLLEFLRPAVQQLDSHVHAVRESQVELREQIDNLATELCRINEDQKVALDLDPYVKKLLNARRRVVLVNNILQNAQERLRRLNHSVAKEDARRRAMLDSGIYPPGSPGK [T117D] |
